Test results from the supplement of paper PMC5998384.

What was measured:
HeLa Kyoto [1] = experiment: thermal stability score vs G1/S (z-score of summed log2 fold changes over temperatures); higher = more thermally stable than in G1/S
HeLa Kyoto [2] = experiment: melting temperature (median over replicates), in situ; higher = more thermally stable
[3] = cell cycle stage: early G1 (4.5 h after nocodazole release)
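Wherever melting temperature (median over replicates), in situ is given: HeLa Kyoto cells synchronized by double thymidine or nocodazole block, proteins quantified by TMT10plex mass spectrometry, three independent biological replicates.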
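Wherever thermal stability score vs G1/S (z-score of summed log2 fold changes over temperatures) is given: synchronized HeLa Kyoto cells, proteins quantified by TMT10plex mass spectrometry, three biological replicates, mitosis taken 0.5 h after nocodazole release, G1/S directly after double thymidine block.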

MARK3, sequence (chain, as listed by the source): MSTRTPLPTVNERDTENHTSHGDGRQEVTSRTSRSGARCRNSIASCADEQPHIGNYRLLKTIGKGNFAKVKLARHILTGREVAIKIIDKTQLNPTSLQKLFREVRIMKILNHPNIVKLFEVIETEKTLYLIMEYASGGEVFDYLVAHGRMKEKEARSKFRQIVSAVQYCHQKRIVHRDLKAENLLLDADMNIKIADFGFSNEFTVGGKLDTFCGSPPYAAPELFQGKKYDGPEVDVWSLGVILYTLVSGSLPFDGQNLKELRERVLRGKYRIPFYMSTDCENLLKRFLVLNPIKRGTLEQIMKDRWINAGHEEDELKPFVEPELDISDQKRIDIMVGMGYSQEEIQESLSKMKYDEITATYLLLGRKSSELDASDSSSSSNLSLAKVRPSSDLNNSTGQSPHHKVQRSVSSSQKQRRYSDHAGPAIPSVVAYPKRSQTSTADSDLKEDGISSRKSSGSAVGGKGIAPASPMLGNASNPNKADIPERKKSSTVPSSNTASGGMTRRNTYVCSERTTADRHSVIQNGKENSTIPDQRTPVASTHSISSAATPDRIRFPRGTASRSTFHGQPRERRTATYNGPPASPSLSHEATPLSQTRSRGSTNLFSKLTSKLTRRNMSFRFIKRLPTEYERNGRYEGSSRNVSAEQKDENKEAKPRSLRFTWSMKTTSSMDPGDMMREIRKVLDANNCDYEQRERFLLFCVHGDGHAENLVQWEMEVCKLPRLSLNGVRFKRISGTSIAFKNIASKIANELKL

Substance: MSEDEEKVKLRRLEPAIQKFIKIVIPTDLERLRKHQINIEKYQRCRIWDKLHEEHINAGRTVQQLRSNIREIEKLCLKVRKDDLVLLKRMIDPVKEEASAATAEFLQLHLESVEELKKQFNDEETLLQPPLTRSMTVGGAFHTTEAEASSQSLTQIYALPEIPQDQNAAESWETLEADLIELSQLVTDFSLLVNSQQEKIDSIADHVNSAAVNVEEGTKNLGKAAKYKLAALPVAGALIGGMVGGPIGLLAGFKVAGIAAALGGGVLGFTGGKLIQRKKQKMMEKLTSSCPDLPSQTDKKCS [STX17]
- thermal stability score (HeLa Kyoto [1]; [3]): -0.17
- thermal stability score (HeLa Kyoto [1]; cell cycle stage: mitosis): 0.13

Substance: MAVPGCNKDSVRAGCKKCGYPGHLTFECRNFLRVDPKRDIVLDVSSTSSEDSDEENEELNKLQALQEKRINEEEEKKKEKSKEKIKLKKKRKRSYSSSSTEEDTSKQKKQKYQKKEKKKEKKSKSKKGKHHKKEKKKRKKEKHSSTPNSSEFSRK [SREK1IP1]
- thermal stability score (HeLa Kyoto [1]; [3]): -0.6
- thermal stability score (HeLa Kyoto [1]; cell cycle stage: mitosis): -4.29

Substance: MAAPLVLVLVVAVTVRAALFRSSLAEFISERVEVVSPLSSWKRVVEGLSLLDLGVSPYSGAVFHETPLIIYLFHFLIDYAELVFMITDALTAIALYFAIQDFNKVVFKKQKLLLELDQYAPDVAELIRTPMEMRYIPLKVALFYLLNPYTILSCVAKSTCAINNTLIAFFILTTIKGSAFLSAIFLALATYQSLYPLTLFVPGLLYLLQRQYIPVKMKSKAFWIFSWEYAMMYVGSLVVIICLSFFLLSSWDFIPAVYGFILSVPDLTPNIGLFWYFFAEMFEHFSLFFVCVFQINVFFYTIPLAIKLKEHPIFFMFIQIAVIAIFKSYPTVGDVALYMAFFPVWNHLYRFLRNIFVLTCIIIVCSLLFPVLWHLWIYAGSANSNFFYAITLTFNVGQILLISDYFYAFLRREYYLTHGLYLTAKDGTEAMLVLK [PIGU]
- thermal stability score (HeLa Kyoto [1]; [3]): 0.038
- thermal stability score (HeLa Kyoto [1]; cell cycle stage: mitosis): -0.34

Substance: MSKMPAKKKSCFQITSVTTAQVATSITEDTESLDDPDESRTEDVSSEIFDVSRATDYGPEEVCERSSSEETLNNVGDAETPGTVSPNLLLDGQLAAAAAAPANGGGVVSARSVSGALASTLAAAATSAPAPGAPGGPQLAGSSAGPVTAAPSQPPTTCSSRFRVIKLDHGSGEPYRRGRWTCMEYYERDSDSSVLTRSGDCIRHSSTFDQTAERDSGLGATGGSVVVVVASMQGAHGPESGTDSSLTAVSQLPPSEKMSQPTPAQPQSFSVGQPQPPPPPVGGAVAQSSAPLPPFPGAATGPQPMMAAAQPSQPQGAGPGGQTLPPTNVTLAQPAMSLPPQPGPAVGAPAAQQPQQFAYPQPQIPPGHLLPVQPSGQSEYLQQHVAGLQPPSPAQPSSTGAAASPATAATLPVGTGQNASSVGAQLMGASSQPSEAMAPRTGPAQGGQVAPCQPTGVPPATVGGVVQPCLGPAGAGQPQSVPPPQMGGSGPLSAVPGGPHAVVPGVPNVPAAVPAPSVPSVSTTSVTMPNVPAPLAQSQQLSSHTPVSRSSSIIQHVGLPLAPGTHSAPTSLPQSDLSQFQTQTQPLVGQVDDTRRKSEPLPQPPLSLIAENKPVVKPPVADSLANPLQLTPMNSLATSVFSIAIPVDGDEDRNPSTAFYQAFHLNTLKESKSLWDSASGGGVVAIDNKIEQAMDLVKSHLMYAVREEVEVLKEQIKELVERNSLLERENALLKSLSSNDQLSQLPTQQANPGSTSQQQAVIAQPPQPTQPPQQPNVSSA [TSC22D2]
- thermal stability score (HeLa Kyoto [1]; [3]): 0.461
- thermal stability score (HeLa Kyoto [1]; cell cycle stage: mitosis): 0.468

Substance: MARK3
- thermal stability score (HeLa Kyoto [1]; [3]): -0.371
- thermal stability score (HeLa Kyoto [1]; cell cycle stage: mitosis): 0.161

Substance: MAAAAAGAGSGPWAAQEKQFPPALLSFFIYNPRFGPREGQEENKILFYHPNEVEKNEKIRNVGLCEAIVQFTRTFSPSKPAKSLHTQKNRQFFNEPEENFWMVMVVRNPIIEKQSKDGKPVIEYQEEELLDKVYSSVLRQCYSMYKLFNGTFLKAMEDGGVKLLKERLEKFFHRYLQTLHLQSCDLLDIFGGISFFPLDKMTYLKIQSFINRMEESLNIVKYTAFLYNDQLIWSGLEQDDMRILYKYLTTSLFPRHIEPELAGRDSPIRAEMPGNLQHYGRFLTGPLNLNDPDAKCRFPKIFVNTDDTYEELHLIVYKAMSAAVCFMIDASVHPTLDFCRRLDSIVGPQLTVLASDICEQFNINKRMSGSEKEPQFKFIYFNHMNLAEKSTVHMRKTPSVSLTSVHPDLMKILGDINSDFTRVDEDEEIIVKAMSDYWVVGKKSDRRELYVILNQKNANLIEVNEEVKKLCATQFNNIFFLD [CCZ1B]
- melting temperature (HeLa Kyoto [2]; cell cycle stage: G1/S): 50.9 °C
- melting temperature (HeLa Kyoto [2]; cell cycle stage: mitosis): 51.8 °C

Substance: MSLCSPTHSAEMSLFLQGPEEMLPLSSEGSEMGSEKEQSPEPHLPEEGEGGKPWRVDDSEGSWIPPGEKEHGQESLSDELQETHPKKPWQKVTVRARELGDPIAHPRHEADEKPFICAQCGKTFNNTSNLRTHQRIHTGEKPYKCSECGKSFSRSSNRIRHERIHLEEKHYKCPKCQESFRRRSDLTTHQQDHLGKRPYRCDICGKSFSQSATLAVHHRTHLEPAPYICCECGKSFSNSSSFGVHHRTHTGERPYECTECGRTFSDISNFGAHQRTHRGEKPYRCTVCGKHFSRSSNLIRHQKTHLGEQAGKDSS [ZNF691]
- melting temperature (HeLa Kyoto [2]; cell cycle stage: G1/S): 54.9 °C
- melting temperature (HeLa Kyoto [2]; cell cycle stage: mitosis): 53.1 °C

Substance: MATQAKRPRVAGPVDGGDLDPVACFLSWCRRVGLELSPKVSERAGGRRTRGGARAALTSPPAQVAVSRQGTVAGYGMVARESVQAGELLFVVPRAALLSQHTCSIGGLLERERVALQSQSGWVPLLLALLHELQAPASRWRPYFALWPELGRLEHPMFWPEEERRCLLQGTGVPEAVEKDLANIRSEYQSIVLPFMEAHPDLFSLRVRSLELYHQLVALVMAYSFQEPLEEEEDEKEPNSPVMVPAADILNHLANHNANLEYSANCLRMVATQPIPKGHEIFNTYGQMANWQLIHMYGFVEPYPDNTDDTADIQMVTVREAALQGTKTEAERHLVYERWDFLCKLEMVGEEGAFVIGREEVLTEEELTTTLKVLCMPAEEFRELKDQDGGGDDKREEGSLTITNIPKLKASWRQLLQNSVLLTLQTYATDLKTDQGLLSNKEVYAKLSWREQQALQVRYGQKMILHQLLELTS [SETD6]
- melting temperature (HeLa Kyoto [2]; cell cycle stage: mitosis): 50.4 °C

Substance: MSLPPEKASELKQLIHQQLSKMDVHGRIREILAETIREELAPDQQHLSTEDLIKALRRRGIIDDVMKELNFVTDSVEQELPSSPKQPICFDRQSTLKKTNIDPTRRYLYLQVLGGKAFLEHLQEPEPLPGQVCSTFTLCLHYRNQRFRSKPVPCACEPDFHDGFLLEVHRESLGDGTRMADSTTMLSISDPIHMVLIKTDIFGETTLVASYFLEWRSVLGSENGVTSLTVELMGVGTESKVSVGILNIKLEMYPPLNQTLSQEVVNTQLALERQKTAEKERLFLVYAKQWWREYLQIRPSHNSRLVKIFAQDENGINRPVCSYVKPLRAGRLLDTPRQAARFVNVLGYERAPVIGGGGKQEQWCTLLAFLCRNKGDCEDHANLLCSLLLGYGLEAFVCVGTKAKGVPHAWVMTCGTDGAITFWESLTGHRYIHKPTNPDEPPVAEQPKPLYPYRTIGCVFNHQMFLGNCQPSDAVETCVFDLNDESKWKPMSEEAIKSVCAPGATTSLPPFPPLCASTIDASVTSNEIEMQLRLLVSEHRKDLGLTTVWEDQLSYLLSPALASYEFERTTSISAGNEEFQDAIRRAVPDGHTFKGFPIHFVYRNARRAFATCLRSPFCEEIICCRGDQVRLAVRVRVFTYPESACAVWIMFACKYRSVL [CEP76]
- melting temperature (HeLa Kyoto [2]; cell cycle stage: G1/S): 53.7 °C

Substance: MEADGDGEELARLRSVFAACDANRSGRLEREEFRALCTELRVRPADAEAVFQRLDADRDGAITFQEFARGFLGSLRGGRRRDWGPLDPAPAVSEAGPETHDSEEDEGDEDAAAALATSCGPASPGRAWQDFQARLGDEAKFIPREEQVSTLYQNINLVEPRLIQPYEHVIKNFIREIRLQSTEMENLAIAVKRAQDKAAMQLSELEEEMDQRIQAAEHKTRKDEKRKAEEALSDLRRQYETEVGDLQVTIKKLRKLEEQSKRVSQKEDVAALKKQIYDLSMENQKVKKDLLEAQTNIAFLQSELDALKSDYADQSLNTERDLEIIRAYTEDRNSLERQIEILQTANRKLHDSNDGLRSALENSYSKFNRSLHINNISPGNTISRSSPKFIGHSPQPLGYDRSSRSSYVDEDCDSLALCDPLQRTNCEVDSLPESCFDSGLSTLRDPNEYDSEVEYKHQRGFQRSHGVQESFGGDASDTDVPDIRDEETFGLEDVASVLDWKPQGSVSEGSIVSSSRKPISALSPQTDLVDDNAKSFSSQKAYKIVLAGDAAVGKSSFLMRLCKNEFRENISATLGVDFQMKTLIVDGERTVLQLWDTAGQERFRSIAKSYFRKADGVLLLYDVTCEKSFLNIREWVDMIEDAAHETVPIMLVGNKADIRDTAATEGQKCVPGHFGEKLAMTYGALFCETSAKDGSNIVEAVLHLAREVKKRTDKDDSRSITNLTGTNSKKSPQMKNCCNG [RASEF]
- melting temperature (HeLa Kyoto [2]; cell cycle stage: G1/S): 49.8 °C
- melting temperature (HeLa Kyoto [2]; cell cycle stage: mitosis): 50 °C
